B1: His6-MBP-zfSMNwt (natural protein, zebrafish, UniProt Q9W6S8 1-281, looked up)
chain: MANGAEDVVFCRGTGQSDDSDIWDDTALIKAYDKAVASFKNALKGEDGATPQENDNPGKKRKNNKKNKSRKRCNAAPDKEWQVGDSCYAFWSEDGNLYTATITSVDQEKGTCVVFYTDYGNEEEQNLSDLLTEPPDMDEDALKTANVKETESSTEESDRSFTPQKSGHAKHKSKSNFPMGPPSWFPSFPPGPPPPPPHFKKMDGRRGEGPGPSFPGWPPMIPLGPPMIPPPPPMSPDFGEDDEALGSMLISWYMSGYHTGYYMGLRQGRKEAAASKKSHRK
notes: Survival motor neuron protein (Smn), zebrafish, wild type; The order of the tags is read from the printed name only; also called zebrafish Smn; zebrafish-Smn only control; source: E. coli BL21(DE3), purified (NiNTA); not shown: His6, N-terminal, kept; MBP, N-terminal, kept
B2: GST-hSMN (252-284) (domain or fragment, human, UniProt Q16637 252-284, looked up)
chain: DSLDDADALGSMLISWYMSGYHTGYYMGFRQNQ
notes: The N-terminal place of GST is read from the printed name only; also called human SMN; human-SMN only control; source: E. coli BL21(DE3), purified (NiNTA); not shown: GST, N-terminal, kept

Experiments:
[1] = target: the molecule itself; assay: SEC; Superdex 200 Increase 10/300 GL; purified fusion proteins run alone and as a mixture; fractions analysed by SDS-PAGE with Coomassie staining
His6-MBP-zfSMNwt = target: B1; assay: as above; conditions: both partners purified

Binder | binding result [1] | binding result (His6-MBP-zfSMNwt)
B1 | binds | –
B2 | binds | binds
